Patent US5912325A, “Biologically active porcine somatotropin polypeptides and methods of using the same” (American Cyanamid Company, priority 1994, dated 1999)

System: hypox rats
Experiment: Biological assay for growth-promoting activity: net weight gain of hypophysectomized rats
Type: in vivo, rat
Details: 5 ug/day pST alone, day 0 to 4 and day 7 to 10, versus untreated rats, FIG. 4
Description: Hypox rats are injected subcutaneously with pST (5 ug/day) with or without antibody (2 mg/day) for 5 consecutive days and the net weight gain is recorded. Immune antibodies are prepared from two pigs that had been immunized with pST (54-95) and the control antibody is prepared from a pooled sera of non-immunized pigs. *,p<0.05; **,p<0.01.
In a study similar to that shown in FIG. 3, except antibody is injected at a dose of 0.5 mg/day and for a longer period of time. *,p<0.05; **,p<0.01; ***,p<0.001.
Hypophysectomized female Sprague-Dawley rats, 21 days of age and weighing 50-64 g, are obtained from Taconic Farm, Germantown, N.Y. and used to assay for Growth Hormone (GH). Female crossbred swine (Duroc x Yorkshire x Hampshire), 3-5 months of age, weighing 30-50 kg, are obtained from the breeding colony of American Cyanamid Co., Princeton, N.J. and used for the production of antibodies.
Hypophysectomized rats are randomly allocated to groups of eight. Antibody mixed with 5 ug pST at room temperature for 1 hour is administered subcutaneously in the neck region of experimental rats. All animals are treated daily for various periods of time and their growth is recorded as net weight gain. […]
The growth enhancing effect of these antibodies are evaluated in hypox rats. […] Net weight gains are recorded. […]

B1: pST: single chain polypeptide of 191 amino acids, growth hormone native to swine (protein, UniProt P01248 27-216, looked up)
Somatotropin: FPAMPLSSLFANAVLRAQHLHQLAADTYKEFERAYIPEGQRYSIQNAQAAFCFSETIPAPTGKDEAQQRSDVELLRFSLLLIQSWLGPVQFLSRVFTNSLVFGTSDRVYEKLKDLEEGIQALMRELEDGSPRAGQILKQTYDKFDTNLRSDDALLKNYGLLSCFKKDLHKAETYLRVMKCRRFVESSCAF
For B1, the “growth (net weight gain)” value was “marked growth as compared to untreated rats”.
